The results in this text go back to article PMC5334656, “McMYB12 Transcription Factors Co-regulate Proanthocyanidin and Anthocyanin Biosynthesis in Malus Crabapple”.

For series [1], the target named is T1, McMYB12a (Malus crabapple, UniProt X2EXK4 1-364).
T1 sequence: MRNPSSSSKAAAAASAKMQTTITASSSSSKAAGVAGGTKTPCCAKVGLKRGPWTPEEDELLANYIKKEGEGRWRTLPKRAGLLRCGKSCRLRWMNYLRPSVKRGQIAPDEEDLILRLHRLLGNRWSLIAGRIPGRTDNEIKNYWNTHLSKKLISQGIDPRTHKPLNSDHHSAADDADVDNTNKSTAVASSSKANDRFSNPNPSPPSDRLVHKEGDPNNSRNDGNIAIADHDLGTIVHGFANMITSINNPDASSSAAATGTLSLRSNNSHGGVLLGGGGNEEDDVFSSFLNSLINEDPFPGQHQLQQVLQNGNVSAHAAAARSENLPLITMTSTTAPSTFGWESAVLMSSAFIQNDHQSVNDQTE
As to the kind of experiment: EMSA; LightShift Chemiluminescent EMSA Kit per manufacturer; 10 ug protein, 25 pmol biotin probe, 10- to 1000-fold competitor; buffer, salt, pH and temperature not stated. The settings on record: protein: recombinant; label: biotin; blunt. In general terms: In EMSA bound probe runs differently from free probe, usually more slowly.

For series [2], the target named is T2, McMYB12b (Malus crabapple, UniProt X2EZI4 1-374).
T2 sequence: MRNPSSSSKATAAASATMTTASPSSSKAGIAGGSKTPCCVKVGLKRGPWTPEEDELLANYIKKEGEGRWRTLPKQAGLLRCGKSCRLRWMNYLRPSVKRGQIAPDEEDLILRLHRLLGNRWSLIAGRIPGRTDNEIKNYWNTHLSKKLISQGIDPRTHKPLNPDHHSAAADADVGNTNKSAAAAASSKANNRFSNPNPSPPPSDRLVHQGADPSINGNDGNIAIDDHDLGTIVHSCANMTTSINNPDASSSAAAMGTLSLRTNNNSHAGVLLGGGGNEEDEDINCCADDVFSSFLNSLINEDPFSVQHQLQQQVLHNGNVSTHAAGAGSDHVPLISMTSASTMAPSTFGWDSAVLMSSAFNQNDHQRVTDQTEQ
The description is as above. The settings on record: protein: recombinant; label: biotin; blunt.

B1: proMcCHS probe (dsDNA)
DNA 1: GCAACTCCTCCCAACTGTGTGGATCAAGCCACATACCCCGACTATTACT
DNA 2: AGTAATAGTCGGGGTATGTGGCTTGATCCACACAGTTGGGAGGAGTTGC
Consider B1, for which the binding result in series [1] is given as “binds”.

B2: proMcANR2 probe (dsDNA)
DNA 1: ATTGGGAGATATGTGCTCGTTTTAGAGTGCTTTTAAAATAACTGAAAAC
DNA 2: GTTTTCAGTTATTTTAAAAGCACTCTAAAACGAGCACATATCTCCCAAT
Regarding B2, the binding result in series [2] and in series [1] was “binds” throughout.

B3: proMcLAR1 probe (dsDNA)
DNA 1: GGACAGAAATTATCCATACACCCTTTTCGTTAATGTTGCAAACTGAGT
DNA 2: ACTCAGTTTGCAACATTAACGAAAAGGGTGTATGGATAATTTCTGTCC
B3: the binding result in series [2] is on record as “binds”; in series [1], “no binding”.

B4: proMcLAR2 probe (dsDNA)
DNA 1: AAGTATGGTATAAACACAGACTAAGCCTCATTATCATATCCATATCAT
DNA 2: ATGATATGGATATGATAATGAGGCTTAGTCTGTGTTTATACCATACTT
For the molecule B4, the binding result in series [2] and in series [1] was “binds” each time.

B5: proMcANR1 probe (dsDNA)
DNA 1: ATTCTGAGTACTGTAACCTAAGTTGAAGTTGAATAATTGACGTCGTC
DNA 2: GACGACGTCAATTATTCAACTTCAACTTAGGTTACAGTACTCAGAAT
In the case of B5, the binding result in series [2] and in series [1] was “binds” in each case.

B6: proMcANS probe (dsDNA)
DNA 1: AGATCATTGCTCCAACTGGCTAAAATTAAGTGACCATTACTATAAT
DNA 2: ATTATAGTAATGGTCACTTAATTTTAGCCAGTTGGAGCAATGATCT
Consider B6, for which the binding result in series [2] and in series [1] was “binds” in each case.
